Results from patent US20230055694A1 (INSTIL BIO UK, published 2023).
Values belong to the binder of their own block, whether it stands above or below them.

Experiments:
[1] = target: Human folate receptor alpha (FolR) on cells (human) (UniProt P15328); test: cell-based or functional assay
rhCEACAM5-Fc = target: T1, rhCEACAM5-Fc (human, UniProt P06731 35-685); test: flow cytometry of transduced T cells: CoStAR detected with primary rhCEACAM5-Fc and secondary anti-IgG-Fc-PE (FIG. 26)
T1 construct: Bought staining reagent; construct limits and Fc not described; also called primary rhCEACAM5-Fc antibody; CEA.hFc protein; not shown: Fc tag detected with anti-IgG-Fc-PE
T1 sequence (looked up): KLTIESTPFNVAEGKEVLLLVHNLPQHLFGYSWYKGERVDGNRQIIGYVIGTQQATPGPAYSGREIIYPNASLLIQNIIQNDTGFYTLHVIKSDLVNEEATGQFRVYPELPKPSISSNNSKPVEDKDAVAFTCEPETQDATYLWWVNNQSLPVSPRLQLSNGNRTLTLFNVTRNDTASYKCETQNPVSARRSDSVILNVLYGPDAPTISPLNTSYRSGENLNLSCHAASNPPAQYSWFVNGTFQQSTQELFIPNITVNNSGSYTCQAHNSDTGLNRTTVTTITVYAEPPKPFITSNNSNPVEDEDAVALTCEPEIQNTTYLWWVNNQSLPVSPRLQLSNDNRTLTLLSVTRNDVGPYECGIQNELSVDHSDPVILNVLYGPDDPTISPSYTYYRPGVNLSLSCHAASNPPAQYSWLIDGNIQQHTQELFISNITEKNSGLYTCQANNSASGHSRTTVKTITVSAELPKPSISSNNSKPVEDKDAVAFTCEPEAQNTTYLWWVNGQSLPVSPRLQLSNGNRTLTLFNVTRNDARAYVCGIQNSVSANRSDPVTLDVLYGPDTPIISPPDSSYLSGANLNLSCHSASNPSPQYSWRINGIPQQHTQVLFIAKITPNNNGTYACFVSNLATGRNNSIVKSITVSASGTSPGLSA

Sequence of Human folate receptor alpha (FolR) on cells (human) (P15328 25-234): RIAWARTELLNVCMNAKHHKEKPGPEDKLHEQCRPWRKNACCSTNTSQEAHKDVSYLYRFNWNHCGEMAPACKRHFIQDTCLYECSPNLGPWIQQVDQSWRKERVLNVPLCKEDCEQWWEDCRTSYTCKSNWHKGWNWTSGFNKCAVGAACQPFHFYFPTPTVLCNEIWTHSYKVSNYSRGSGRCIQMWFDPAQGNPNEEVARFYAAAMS

B1: MOV19.CD28.CD40 CoStAR (receptor, part only; not given: tag, linker, CD28 and CD40 parts, part only)
chain, part: QVQLQQSGAELVKPGASVKISCKASGYSFTGYFMNWVKQSHGKSLEWIGRIHPYDGDTFYNQNFKDKATLTVDKSSNTAHMELLSLTSEDFAVYYCTRYDGSRAMDYWGQGTTVTVSSGGGGSGGGGSGGGGSDIELTQSPASLAVSLGQRAIISCKASQSVSFAGTSLMHWYHQKPGQQPKLLIYRASNLEAGVPTRFSGSGSKTDFTLNIHPVEEEDAATYYCQQSREYPYTFGGGTKLEIK
CD137 expression [1]: 50%
CD137 expression of CoStAR+ TIL after coculture with FolR high expressing tumour digest [1]: 50%
CD137 expression of CoStAR+ TIL after coculture with FolR low expressing tumour digest [1]: > 20%
IL-2 production [1]: 5%
TNFα production [1]: 15%
enhancement of Bcl-XL induction in the presence of OvCAR-OKT3 [1]: 35%
mean fold expansion of transduced T cells over 21 days with OvCAR-OKT3 (CA125+/Folate receptor+/CEA-) [1]: 1300 fold

B2: MOV19.CD28 CoStAR (receptor, part only; not given: tag, linker and CD28 part, part only)
chain, part: B1 chain, part
enhancement of Bcl-XL induction in the presence of OvCAR-OKT3 [1]: 20%
enhancement of IL-2 induction in the presence of OvCAR-OKT3 [1]: 20%
mean fold expansion of transduced T cells over 21 days with OvCAR-OKT3 (CA125+/Folate receptor+/CEA-) [1]: 187 fold

Second part, the binder after the results:

binding result (rhCEACAM5-Fc): binds
B3: anti-CEA CoStAR CTP244 (OSM1 signal peptide, hMFE23 scFv, AAAGSGGSG linker, CD28 (trunc IIH) spacer, CD28 TM, CD28.CD40) (receptor)
chain: QVKLEQSGAEVVKPGASVKLSCKASGFNIKDSYMHWLRQGPGQRLEWIGWIDPENGDTEYAPKFQGKATFTTDTSANTAYLGLSSLRPEDTAVYYCNEGTPTGPYYFDYWGQGTLVTVSSGGGGSGGGGSGGGGSENVLTQSPSSMSASVGDRVNIACSASSSVSYMHWFQQKPGKSPKLWIYSTSNLASGVPSRFSGSGSGTDYSLTISSMQPEDAATYYCQQRSSYPLTFGGGTKLEIKAAAGSGGSGIIHVKGKHLCPSPLFPGPSKPFWVLVVVGGVLACYSLLVTVAFIIFWVRSKRSRLLHSDYMNMTPRRPGPTRKHYQPYAPPRDFAAYRSKKVAKKPTNKAPHPKQEPQEINFPDDLPGSNTAAPVQETLHGCQPVTQEDGKESRISVQERQ
notes: On transduced human T cells

binding result (rhCEACAM5-Fc): binds
B4: anti-CEA CoStAR CTP232 (OSM1 signal peptide, hMFE23 scFv, AAAGSGGSG linker, CD8 EC spacer, CD8 TM, CD28.CD40) (receptor)
chain: QVKLEQSGAEVVKPGASVKLSCKASGFNIKDSYMHWLRQGPGQRLEWIGWIDPENGDTEYAPKFQGKATFTTDTSANTAYLGLSSLRPEDTAVYYCNEGTPTGPYYFDYWGQGTLVTVSSGGGGSGGGGSGGGGSENVLTQSPSSMSASVGDRVNIACSASSSVSYMHWFQQKPGKSPKLWIYSTSNLASGVPSRFSGSGSGTDYSLTISSMQPEDAATYYCQQRSSYPLTFGGGTKLEIKAAAGSGGSGFVPVFLPAKPTTTPAPRPPTPAPTIASQPLSLRPEACRPAAGGAVHTRGLDFACDIYIWAPLAGTCGVLLLSLVITLYCNHRNRSKRSRLLHSDYMNMTPRRPGPTRKHYQPYAPPRDFAAYRSKKVAKKPTNKAPHPKQEPQEINFPDDLPGSNTAAPVQETLHGCQPVTQEDGKESRISVQERQ
notes: On transduced human T cells
